The assay addresses FLAG-tagged a3 isoform of the V-ATPase a subunit (mouse) (UniProt Q9JHF5). Briefly: co-immunoprecipitation (anti-FLAG IP, anti-V5 Western blot). The settings on record: HEK293T cells; intensity of V5-fused GTP-binding protein co-precipitated with a3 normalised to that of V5-Rab7.

Some results are limits rather than exact numbers.

Chain of UniProt Q9JHF5 (Q9JHF5 entry or part of it): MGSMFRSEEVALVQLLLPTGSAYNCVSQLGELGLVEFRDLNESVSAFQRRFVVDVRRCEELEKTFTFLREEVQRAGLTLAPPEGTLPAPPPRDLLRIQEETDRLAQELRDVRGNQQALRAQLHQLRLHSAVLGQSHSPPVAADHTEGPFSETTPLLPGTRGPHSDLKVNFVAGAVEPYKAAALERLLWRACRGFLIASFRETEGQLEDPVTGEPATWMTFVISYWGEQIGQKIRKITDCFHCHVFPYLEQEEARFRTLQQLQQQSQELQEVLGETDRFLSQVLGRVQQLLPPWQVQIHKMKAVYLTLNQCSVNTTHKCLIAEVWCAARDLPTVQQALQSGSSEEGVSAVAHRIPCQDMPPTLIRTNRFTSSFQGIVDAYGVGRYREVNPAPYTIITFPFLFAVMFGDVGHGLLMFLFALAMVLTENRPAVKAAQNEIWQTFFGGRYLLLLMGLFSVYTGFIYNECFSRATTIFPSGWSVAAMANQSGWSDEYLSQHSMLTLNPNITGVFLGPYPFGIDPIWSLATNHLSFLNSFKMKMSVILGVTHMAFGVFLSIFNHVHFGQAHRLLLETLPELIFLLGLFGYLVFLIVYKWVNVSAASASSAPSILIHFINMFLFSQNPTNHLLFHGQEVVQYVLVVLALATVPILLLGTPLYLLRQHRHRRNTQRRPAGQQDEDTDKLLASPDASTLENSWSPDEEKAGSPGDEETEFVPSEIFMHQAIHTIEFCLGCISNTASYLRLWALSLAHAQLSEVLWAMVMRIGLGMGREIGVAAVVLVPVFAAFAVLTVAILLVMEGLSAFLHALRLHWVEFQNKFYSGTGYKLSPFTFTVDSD

Consider Ran W D (substitution not printed), for which the other: relative signal intensity is less than 0.1.

For the substance Ran W C (substitution not printed), the other: relative signal intensity was less than 0.1. In turn, H-Ras W D (substitution not printed) returned an other: relative signal intensity of less than 0.1. Then H-Ras W C (substitution not printed), with less than 0.1.

The record behind these values is paper PMC5928161.
